# Source: patent US5472841, “Methods for identifying nucleic acid ligands of human neutrophil elastase” (NeXstar Pharmaceuticals, Inc.)
# B1: ligand 44 (class I) (ssRNA)
# RNA: GGGAGCUCAGAAUAAACGCUCAAGAGUAGGCUUGACGCUGGGGGGGUAUGGCUUCGACUUGCGUUCGACAUGAGGCCCGGAUCCGGC
# modifications: 2'-NH2 all pyrimidines
# B2: ligand 4 (class V) (ssRNA)
# RNA: GGGAGCUCAGAAUAAACGCUCAACGGAUCGGGCGGUCGUCUAGCGGGAUGGCGUGCGGGUGGAUUCGACAUGAGGCCCGGAUCCGGC
# modifications: 2'-NH2 all pyrimidines
# B3: ligand 22 (class V) (ssRNA)
# RNA: GGGAGCUCAGAAUAAACGCUCAAGGCCCUCUGAACCGUCUGGGCGUGGUUAGUGGGUGGCUUCGACAUGAGGCCCGGAUCCGGC
# modifications: 2'-NH2 all pyrimidines
# B4: ligand 3 (class VI) (ssRNA)
# RNA: GGGAGCUCAGAAUAAACGCUCAAUGAGGUUGAGUAGUCGUGGUAAUGGCCACGGCUGGGGGGGUCGGUUCGACAUGAGGCCCGGAUCCGGC
# modifications: 2'-NH2 all pyrimidines
# B5: ligand 46 (class VI) (ssRNA)
# RNA: GGGAGCUCAGAAUAAACGCUCAAUGGAUAGCGCUGCGUGACCGCGCUGGGGGGGUUGGCAGGGUUCGACAUGAGGCCCGGAUCCGGC
# modifications: 2'-NH2 all pyrimidines
# B6: ligand 12 3'-truncated (ssRNA)
# RNA: GGGAGCUCAGAAUAAACGCUCAAGAGUAGGCUUGACGCCUGGGGGGGUAUGGCUUCGACUGCG
# modifications: 2'-NH2 all pyrimidines
# B7: ligand 14 3'-truncated (ssRNA)
# RNA: GGGAGCUCAGAAUAAACGCUCAAGGCAGACAUACGCCUUGGGGGGGUUUCAGGGUAUAUGGCA
# modifications: 2'-NH2 all pyrimidines
# B8: ligand 9 3'-truncated (ssRNA)
# RNA: GGGAGCUCAGAAUAAACGCUCAAGGAAUGAAUGUGAUGAACAGGUGUCGGGGUGGAUGGGUGG
# modifications: 2'-NH2 all pyrimidines
# B9: ligand 19 3'-truncated (ssRNA)
# RNA: GGGAGCUCAGAAUAAACGCUCAAUGCCCGGCAGUACUGCACGGCCUCGGGGGGGACCAGGGAG
# modifications: 2'-NH2 all pyrimidines
# B10: ligand 24 (class II) (ssRNA)
# RNA: GGGAGCUCAGAAUAAACGCUCAAGGUAGACAUACGCCUUGGGGGGGUAUCAGGGUAUAUGGUAUUCGACAUGAGGCCCGGAUCCGGC
# modifications: 2'-NH2 all pyrimidines
# B11: ligand 21 (class II; ligand 56 same SEQ ID) (ssRNA)
# RNA: GGGAGCUCAGAAUAAACGCUCAAGGUAGACAUACGCCUUGGGGGGGUGUCAGGGUAUAUGGUAUUCGACAUGAGGCCCGGAUCCGGC
# modifications: 2'-NH2 all pyrimidines
# B12: ligand 9 (class III) (ssRNA)
# RNA: GGGAGCUCAGAAUAAACGCUCAAGGAAUGAAUGUGAUGAACAGGUGUCGGGGUGGAUGGGUGGUUCGACAUGAGGCCCGGAUCCGGC
# modifications: 2'-NH2 all pyrimidines
# B13: ligand 14 (class II) (ssRNA)
# RNA: GGGAGCUCAGAAUAAACGCUCAAGGCAGACAUACGCCUUGGGGGGGUUUCAGGGUAUAUGGCAUUCGACAUGAGGCCCGGAUCCGGC
# modifications: 2'-NH2 all pyrimidines
# B14: DNA-17 (ssDNA)
# DNA: TAGCGATACTGCGTGGGTTGGGGCGGGTAGGGCCAGCAGTCTCGTGCGGTACTTGAGCA
# B15: ligand 30 (class I; ligand 12 same SEQ ID) (ssRNA)
# RNA: GGGAGCUCAGAAUAAACGCUCAAGAGUAGGCUUGACGCCUGGGGGGGUAUGGCUUCGACUGCGUUCGACAUGAGGCCCGGAUCCGGC
# modifications: 2'-NH2 all pyrimidines
# B16: ligand 26 (class III) (ssRNA)
# RNA: GGGAGCUCAGAAUAAACGCUCAACGCCUUAGUCGCCAUAAUGCUGUCGGGGUGGAUAGGGUGGUUCGACAUGAGGCCCGGAUCCGGC
# modifications: 2'-NH2 all pyrimidines
# B17: ligand 19 (class IV) (ssRNA)
# RNA: GGGAGCUCAGAAUAAACGCUCAAUGCCCGGCAGUACUGCACGGCCUCGGGGGGGACCAGGGAGUUCGACAUGAGGCCCGGAUCCGGC
# modifications: 2'-NH2 all pyrimidines
# B18: ligand 28 (class IV) (ssRNA)
# RNA: GGGAGCUCAGAAUAAACGCUCAAAUCGGAUAGCGCCGCGAUGGCGUCUGGGGGGGACCAGGGAUUCGACAUGAGGCCCGGAUCCGGC
# modifications: 2'-NH2 all pyrimidines
# Assays:
# [1] = target: T1, Human neutrophil elastase (Homo sapiens, UniProt P08246 P08246:30-267); assay: filter; 6 mM KCl, 2 mM MgCl2, pH 7.0; details: tags: Athens Research and Technology
# T1 sequence (P08246 30-267, one chain of several): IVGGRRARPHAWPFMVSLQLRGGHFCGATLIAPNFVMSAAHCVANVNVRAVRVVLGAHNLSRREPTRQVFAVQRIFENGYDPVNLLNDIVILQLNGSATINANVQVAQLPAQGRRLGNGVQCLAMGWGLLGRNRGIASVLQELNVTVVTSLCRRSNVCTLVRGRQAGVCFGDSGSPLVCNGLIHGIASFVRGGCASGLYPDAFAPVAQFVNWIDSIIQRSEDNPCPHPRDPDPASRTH
# [2] = target: T1, Human neutrophil elastase; assay: filter; 3'-truncated; details: tags: Athens Research and Technology
# Text: (§1) With the use of PCR primers specific for the 3' sequence of the 2'-NH₂ modified RNA ligand, the 3'-fixed regions for four different ligands (class I ligand 12, class II ligand 14, class III ligand 9 and class IV ligand 19) were eliminated.
# [3] = target: T1, Human neutrophil elastase; assay: filter; 3'-truncated; also FIG. 1; details: tags: Athens Research and Technology
# Text: as §1
# [4] = target: Thrombin (UniProt P00734;P00734 P00734:328-363,P00734:364-622); assay: filter; specificity control
# [5] = target: T1, Human neutrophil elastase; assay: filter; no KCl in binding buffer; details: tags: Athens Research and Technology; G4 predicted
# [6] = target: Basic fibroblast growth factor (bFGF) (UniProt P09038 P09038:143-288); assay: filter; specificity control
# Sequence of Basic fibroblast growth factor (bFGF) (P09038 143-288, one chain of several): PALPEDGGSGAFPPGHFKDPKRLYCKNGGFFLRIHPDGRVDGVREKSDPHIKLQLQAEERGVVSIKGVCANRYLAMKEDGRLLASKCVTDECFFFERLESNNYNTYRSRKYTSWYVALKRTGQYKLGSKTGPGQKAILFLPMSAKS
# [7] = target: T1, Human neutrophil elastase; assay: filter; better at pH 5, Kd rises about 3-fold over two pH units; ligand 17 legend cites SEQ ID NO:1, sequence taken from Example 7; details: tags: Athens Research and Technology; G4 predicted
# [8] = target: T1, Human neutrophil elastase; assay: competition; competes with ligand 24; details: tags: Athens Research and Technology; G4 predicted
binder,measurement,setting,value
B1,Kd,[1],28 nM
B2,Kd,[1],172 nM
B3,Kd,[1],24 nM
B4,Kd,[1],28 nM
B5,Kd,[1],13 nM
B6,Kd,[2],10 nM
B7,Kd,[3],14.5 nM
B8,Kd,[2],989 nM
B9,Kd,[2],648 nM
B10,Kd,[1]; G4 predicted,11 nM
same,Kd,[4],600 nM
B11,Kd,[1]; G4 predicted,39 nM
same,Kd,[5],192 nM
B12,Kd,[6],500 nM
B13,Kd,[1],17 nM
B14,binding result,[7],binds
B15,binding result,[8],binds
B16,Kd,[1],38 nM
B17,Kd,[1],8 nM
B18,Kd,[1],57 nM
